The source of these data is patent US20140287419A1, “Compositions Having Dicamba Decarboxylase Activity and Methods of Use” (priority 2013, published 2014).

B1: 80 (protein, listed as Cordyceps militaris)
chain: MAAASTPVVVDIHTHMYPPSYIAMLEKRQTIPLVRTFPQADEPRLILLSSELAALDAALADPAAKLPGRPLSTHFASLAQKMHFMDTNGIRVSVISLANPWFDFLAPDEAPGIADAVNAEFSDMCAQHVGRLFFFAALPLSAPVDAVKASIERVKNLKYCRGIILGTSGLGKGLDDPHLLPVFEAVADAKLLVFLHPHYGLPNEVYGPRSEEYGHVLPLALGFPMETTIAVARMYMAGVFDHVRNLQMLLAHSGGTLPFLAGRIESCIVHDGHLVKTGKVPKDRRTIWTVLKEQIYLDAVIYSEVGLQAAIASSGADRLMFGTDHPFFPPIEEDVQGPWDSSRLNAQAVIKAVGEGSSDAAAVMGLNAVRVLSLKAE
B2: 83 (protein, listed as Mycobacterium rhodesiae)
chain: MALIALEEHYAWSPVSAGNVVGSWLETHNVTAYQRLYDRGPLRLEQMDAAGIDFQILSLFDPGVQDDDDTARAVENARRANDDLAETVRAAPDRFGGFATLAPQDPDAAAAELERAVGELGLVGGLINGHTHGRYLDDPAYLGLFECAQRLGVPIYLHPTTPHPAVMDAWFAPYVKDGLHLASWGFAAETGTHALRLIYSGLFDTFPRLQMILGHLGEMLPYAAYRIDRYYGLGGGDDGGRLARLPSEYLRDNFHVTTSGNFNPVAFACALDVMGPDRLMFSVDYPMDDNVTGAEFLRNLEVDDDVRRKVAGENALQLFGDKIPRR
B3: 89 (protein, listed as Erwinia billingiae)
chain: MATNRRDFLKNATAVMAGSTVFAGSSHFASAAAVEPAAVQPPRRIIALEEHFMLPEFVGYLHETQQNLRNGLVDKVVTPLSDFGKGRLEIMDKNGVDFAVLSLSGPGVQAEPDRVKAVRLARYANDKLATEMQKNPRRYGGFAHLAMQDPLAAANELERCVKQLHMQGGMINGETDGLYLDDRRYDVFWERVEALNVPIYIHPGNPPDYPHMFAGHPEMWGPVWSWAVETCSHALRLIFSGTFDRYPGARVILGHMGETLPIQLWRLDSRYQIANQTFAIKHPPSWYAKKNITITTSGVCNDAALRCALDSMGSENVMFSIDYPFESTEIAVNWLKTANITEQERNAVAWGNATSILRLGA
B4: 81 (protein, listed as Verticillium dahliae)
chain: MAASTKPKVVDIHTHMYPPSYIDILTSRTAIPVVRTFPQAADPRLILLDAEQQALDAALQDPTAKPPGRPLTSHYASLDQKIHFMDTHSIDISVVSLANPWLDFIEPKEAAATARSVNDEFEAMCASQPGRLFFFAALPLTAPLPALLEAVRHVAELEHCRGVILGTSGLGSGLDDPELVPVLEAVAAAALTVFLHPHYGLPNDVWGPRASAEYGHVLPLALGFPMETTIAVARMYLAGVFDRVPALRMLLAHSGGTLPFLAGRIESCILHDGQLVAEGKVGAARRTIWDVLREQVYLDAVIYSEIGLKAAIAASGGADRLMFGTDHPFFPPLGTDEQAKKESRINAGGSRPMITGNAMINGHGGLCNHITQSDYQDVVL
B5: 7 (protein, listed as Legionella pneumophila)
chain: MAIVDFETHFITEACIDYLTQRQEVPKLVPELNGAYTMCFTPDVSLFHTSALMEELLSLNEQRLAIMDQAGVTIQVLSLTTINGIDSCPGDENKSTALAREVNDQLYSAIQRHPERFKGFASISPYDVKEGVKELERAISQLGFVGWLTHSNFGEDNYLDDKTYWPLLEAAEGLNIPIYLHPNVPIMREFGKYGFALGGSALGFEFDTALCLMRMILGGVFDAFPKLKIMLGHLGETMPFLMERLDHLYRIPDLKAYRPSIQRIPSEVLRQNVYITTSGRFFVPALRYVLEVMGEDRVLFASDYPMESLLDATRFIQDSDLSNQTKQKIFSINAKNLNLI
B6: 92 (protein, listed as Chitinophaga pinensis)
chain: MARIVTLEEHVSFPEMTALLPEEILKNRKQSGAALQMQEKLADITGERLTSMKAAGISMQVLSVENTDVYLLPDSLAPAFAAKYNDLLADKISSHSDAFAAFAMLPMTVPEAAADELERAVKTHGFCGAMIKGLINGVFLDAPKFAPVFACAEKLGVPLYIHPGIPPKEVIDAYYSNVGDTKGPNEAIACYGWGWHSETAIHILRLLAAGIFDKYPQLNIIIGHMGEMLPMMWERSNRVFQPGNNGKNQRTLIETFRKQLYITTSGIFTQPPLQIAIDTIGIDNILFSIDYPFSSNQMGIDFLTKAALPAEQLAKMAHGNADRILKF
B7: 86 (protein, listed as Sphingopyxis alaskensis)
chain: MALGASVASREASAQMAKAPMRKIATEEAFATPELAKAWLEIARSEPNSSLDIPTGILSIFDNPRPGSNQDRFRRQLLDVDAERIRDMDEAGVDMQLLSVTIPGVQIFEPARAGELAVTTNDHLAAAIARRPTRFAGLACFAPHDPVQATREMERAVNALGLKGFIVNSHTQDLYLDDPRFAPVLEAAQSLDCPIYLHPRAPSNGMAAPFRDYSMGGSIWGFGVEAGTHAVRMILSGVFDRYPRLRIVLGHMGEALPFWMWRLDHMAARRAKDGRMKPLSLAPSEYFKRNFAVTTSGFESPDVLDLVIKVAGIENIMWAIDYPYESSRDAVTFIEGADLTASQRASIFHRNAVRHFRLS
B8: 82 (protein, listed as Rhodopseudomonas palustris)
chain: MAQNETPVIAIEEHYWDPEMVARFPAGENASPFSTLLTELGDVRLRAMDEAGIDVQVLSHGAPAAQKLPPDVAPELTRRVNDRLAEACARFPNRFAAFAALPTPAPEAAARELERCVRDLGFKGAMIHGLTNGLFIDDKRFWPIFEVAEKLDVPIYLHPSVPHADVTRYYYDDYAREFPTVIRPAWGFTVETATQAIRLILSRALESYPRLQIILGHLGETLPFLLWRINQALARPGQTPLDFRKQFCDHFHVTTSGFFSTPALICTMLELGIDRIMFAVDYPYVVNRDGTDWVQQLQISPDDKRKLVGGNARRLLKL
B9: 87 (protein, listed as Novosphingobium sp.)
chain: MASDIATAADLQTGGRQGYLRIATEEAFATRDQIDVYLRMVRDGTADRGMTSLWGFYAQSPSARATQIIERLLDLGEQRLADMDAAGIDKAVLALTSPGVQPLLDMEEARRIAGNANDRLAERCAAHPDRFIGMTAVAPQDPQWSAREILRGATQLGFKGVQINSHTQGRYLDEPFFDPIFRALGDVGQPLYIHPGTPPDSMIGPLLDAGLDGAIYGFGVETGMHLLRLITAGIFDRYPDLQIMVGHMGEALPYWLYRLDYMHQAGIRSQRYERMRPLKRTIAGYFRSNVLVTCSGMAWEPAIQFARQVMGEDRVMYAMDYPYQYEADEVRALDVMDLSPESKRKFFQTNAERWFDL
B10: 90 (protein)
chain: MAATIDRVLYLGNATQRRYTSATVSVPRIFGKVALEEHVGTSIWAKYNLTPPANAVVGVLNRPPTLPNTLDTIARLDDINGRLSSMNHSGIGYVIVSLSSPGIQGVHDTALAIKFSTDINDELYLKYANAYPDKFAFFATVPMQDPVAAASELERAVSLLGAKGAAINGYTDIGPPGNSTTRYLDDPINAPFWSKVAALNVPIYLHPRAPPPSQQLVYNYPNNSLSAYPGLVTGGFAYGAETAVHALRLMLSGLFDTHPNIQIILGHAAEGLPFLIHRSDTQLAAEVPGTNGPYKRPLRYYLRNNFYATLSGVRRLSTTQCTLAEMGEERVLFSVDYPFQSNEDAADWFDGVEGMSVETKRKVARGNARRLFNLTVDLDERQIDGDFM
modifications: Pyrenophora tritici-repentis
B11: 85 (protein, listed as Maritimibacter alkaliphilus)
chain: MAADRKPGLVSVEEGFMIPEVVAELSRIAGGVPSMKSGPIAGPFMDDLLDIGKGRVARMDADGVAVQILALAAPGVQKFDPDTALALSRLTNDRLAEAIAAHPARFGGLAAAPPQAAREGAKELDRAITTLGLNGLIVNSHTNDLYLDDPSFWPLLEAAEALDVPVYLHPREPAAGIEGGLMAMTGFTVGWAYAVETGTHLLRMIAAGVFDRFPRLRIVLGHLGEMIPFMLDRIDNRYPFEMGVTGAKPLPRKPSDYFRDHVTVATSGMNFNAPMRAAIEVLGADKVMFAADYPMERQDEEVAKFAALDLTPDERKRIGEDNARRVFGL
B12: 91 (protein, listed as Botryotinia fuckeliana)
chain: MASFVCNFGKAALATLLLTPSISAADYTPQETVLNSGRPTFYDASTSIPGKIALEEHVGNDLLNGLYTVPYYPNTNEPQYSDSVYIADVGEKMLDIPSRIANMDAANISISVLTFGGPGIQGVFNATYATYAAGYVNDYLYKNYKNNANYTGRFEFWCSNALQEPSKAATELERCVKELGGVGSFVGGYTNNGGINGTANDIVYLDDPSMEPFLEKVVELDVPIYLHPRMPAPSQLLSVKGYEFLGSSPWGFSSETGAHALRLMVSGTLDKYPTLKIVLGHCGEGLPFFLPRIDQRLRHFKKELFNNTLTMEEYWLRNFYVTTAGVQDAGTLVDTIKRTGEDRVMFSVDYPFEDTVEIAGWFDRLEMNTLTKTKLAYENAKALLKLTCYVDAEKRPRIFNKHHVDDIIKHTHSPCIWTLFH
B13: 84 (protein, listed as Mycobacterium rhodesiae)
chain: MASLIALEEHYAWDPASEGNVVATWLRANNGVAYDRLYDRGPLRIEQMDAAGIDFQILSLFDPGVQDEVDAVRAVDLARRANDDLAESVRANPSRFGGFATLATQQPDAAVAEFDRAVTELGLVGGLINGHCQGRYLDDPAYEALFSRAEALGAPIYLHPTTPHPAVMDAWFAPYVGDGLHLASWGFAAETGTHVLRLIYSGLFDKFPRLQMIIGHLGEMLPFAAYRIDRYYGLGGGGTGHTLQHLPSDYLRNNFHVTTSGNFCSPALDCTLDVMGADRVMFSVDYPMDDNQTGADFLASYPMDDTNRRKVASENALRLFGDRIPAALRN
B14: 88 (protein, listed as Starkeya novella)
chain: MARKIALEEHFTTPELAGKYVARPTQSDALFADIERRLADFDELRLEMMDRAEIDLMVLSVTTPGVQGVRDTGEAIRLARGANDFLAREVQKRPSRYAGFAHLAMQDAEAAATELERAVRELGFRGALINGQTNGHYLDEDQYAPFWERVQELDVPVYLHPGNMADSPAMFAHRPELGGPIWAWTAETAAHALRLVFGGTFTRFPGAKVILGHMGETLPFLLWRLDSRREFDLGEKLAPDALPSAIIKRNIAVTTSGVCDPAPLVAALQALSDDNVMFSVDYPYEDPQLASKFIETAPIGEETRAKVCHGNAERLLGL

One data set is described as follows: 14C assay with IPTG-induced recombinant E. coli cells (14CO2 capture from [14C]-carboxyl-labeled dicamba). The conditions noted are these: IPTG-induced recombinant E. coli cells; [14C]-carboxyl-labeled dicamba; 14CO2 capture.
For the molecule B1, the “Dicamba Decarboxylase Activity” value was “Low”.

For the molecule B2, the “Dicamba Decarboxylase Activity” value was “Low”.

B3: the “Dicamba Decarboxylase Activity” value is listed as “High”.

B4: the “Dicamba Decarboxylase Activity” value was “High”.

With B5, the “Dicamba Decarboxylase Activity” value is recorded as “No”.

For the molecule B6, the “Dicamba Decarboxylase Activity” value is on record as “Yes”.

Regarding B7, the “Dicamba Decarboxylase Activity” value was “Low”.

B8: the “Dicamba Decarboxylase Activity” value is “Low”.

For B9, the “Dicamba Decarboxylase Activity” value is on record as “High”.

For B10, the “Dicamba Decarboxylase Activity” value is given as “Low”.

As to B11, the “Dicamba Decarboxylase Activity” value is “Low”.

As to B12, the “Dicamba Decarboxylase Activity” value was “Low”.

B13: the “Dicamba Decarboxylase Activity” value is recorded as “Low”.

For the molecule B14, the “Dicamba Decarboxylase Activity” value is reported as “High”.

The data set is the same for the next values; noted with them: dicamba decarboxylation activity of the protein of the given SEQ ID NO.
For B1, the “Enzymatic Detection level” value is “Low”.

In the case of B2, the “Enzymatic Detection level” value is given as “Low”.

In the case of B3, the “Enzymatic Detection level” value is recorded as “High”.

Consider B4, for which the “Enzymatic Detection level” value is reported as “High”.

In the case of B5, the “Enzymatic Detection level” value is “No”.

Take B6: the “Enzymatic Detection level” value is “High”.

Take B7: the “Enzymatic Detection level” value is listed as “Low”.

For B8, the “Enzymatic Detection level” value was “Low”.

For the molecule B9, the “Enzymatic Detection level” value is “High”.

In the case of B10, the “Enzymatic Detection level” value is recorded as “Low”.

Turning to B11, the “Enzymatic Detection level” value is listed as “Low”.

Take B12: the “Enzymatic Detection level” value is given as “Low”.

B13: the “Enzymatic Detection level” value is on record as “Low”.

Turning to B14, the “Enzymatic Detection level” value is “High”.
